{"source": "paper PMC12248025", "about": "(bioRxiv, 2025)", "proteins": {"B1": {"name": "human IMPDH2 S160del (hIMPDH2-S160del) (enzyme)", "chain": "not shown"}}, "biological_target": "the molecule itself", "assay": "cryo-EM structure", "note": "“And” between values parts separate entries of the source, which are not always exact repeats. Equal entries are not always repeated."}
{"protein": "B1", "values": [{"measurement": "stoichiometry N", "result": "4 and 8"}]}
